T1: N-terminally His-tagged FlgI (Salmonella enterica serovar Typhimurium, UniProt P15930 20-365)
T1 construct: FlgI, flagellar P-ring component protein, Salmonella enterica serovar Typhimurium; Probably without its Sec signal peptide (surmise); also called His-FlgI; source: E. coli Origami2 (DE3), co-expressed, in cell extract (pull-down); purified (SPR); not shown: His tag, N-terminal, kept
T1 sequence (looked up): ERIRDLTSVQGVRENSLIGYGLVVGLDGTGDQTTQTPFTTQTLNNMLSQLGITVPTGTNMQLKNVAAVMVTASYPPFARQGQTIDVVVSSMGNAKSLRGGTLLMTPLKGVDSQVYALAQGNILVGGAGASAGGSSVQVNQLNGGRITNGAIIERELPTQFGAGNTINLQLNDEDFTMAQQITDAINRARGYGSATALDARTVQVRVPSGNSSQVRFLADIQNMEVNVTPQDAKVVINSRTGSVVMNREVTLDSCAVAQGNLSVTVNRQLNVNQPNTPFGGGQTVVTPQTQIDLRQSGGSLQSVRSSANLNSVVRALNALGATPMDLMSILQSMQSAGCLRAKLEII


How the values were obtained:
[1] = molecular target: T1, N-terminally His-tagged FlgI; test: SPR; Biacore T200, 25 °C; FlgA or FlgA R113C-S190C immobilised on CM5 chip by amine coupling, FlgI as analyte; 10 mM HEPES, 150 mM NaCl, 0.05% Surfactant P20, pH 7.4; two-state reaction model; conditions: both partners purified
[2] = molecular target: T1, N-terminally His-tagged FlgI; test: SPR; Biacore T200, 25 °C; FlgI immobilised on CM5 chip by amine coupling, FlgA or FlgA R113C-S190C as analyte; 10 mM HEPES, 150 mM NaCl, 0.05% Surfactant P20, pH 7.4; two-state reaction model; conditions: both partners purified

| Binder | Kd [1] [nM] | Kd [2] [nM] |
| --- | --- | --- |
| FlgA_(R113C-S190C) (purified, histidine tag removed) (natural protein, engineered disulfide bond between C113 and C190, FlgA, Salmonella enterica serovar Typhimurium, with R113C and S190C; numbers count on: the mature protein; also called covalently closed form of FlgA; source: purified; N-terminal-fused histidine tag removed with thrombin prior to gel filtration; not shown: His tag, N-terminal, cleaved) QDINAQLTTWFSQRLAGFSDEVVVTLRSSPNLLPSCEQPAFSMTGSAKLWGNVNVVARCANEKRYLQVNVQATGNYVAVAAPIARGGKLTPANVTLKRGRLDQLPPRTVLDICQIQDAVSLRDLAPGQPVQLTMIRQAWRVKAGQRVQVIANGEGFSVNAEGQAMNNAAVAQNARVRMTSGQIVSGTVDCDGNILINL | 166 | 106 |
| FlgA (purified, histidine tag removed) (natural protein, Salmonella enterica serovar Typhimurium, FlgA, Salmonella enterica serovar Typhimurium; numbers count on: the mature protein (Q1-L198); The crystallised FlgA was another construct (C-terminal hexa-histidine-tagged precursor purified from the periplasm of E. coli); source: purified; N-terminal-fused histidine tag removed with thrombin prior to gel filtration; not shown: His tag, N-terminal, cleaved) QDINAQLTTWFSQRLAGFSDEVVVTLRSSPNLLPSCEQPAFSMTGSAKLWGNVNVVARCANEKRYLQVNVQATGNYVAVAAPIARGGKLTPANVTLKRGRLDQLPPRTVLDIRQIQDAVSLRDLAPGQPVQLTMIRQAWRVKAGQRVQVIANGEGFSVNAEGQAMNNAAVAQNARVRMTSGQIVSGTVDSDGNILINL | 354 | 126 |

Source: publication PMC4895218, “Structural flexibility of the periplasmic protein, FlgA, regulates flagellar P-ring assembly in Salmonella enterica” (Scientific Reports, 2016)
